Several values for one entry are separate records, joined by “and”; a condition that tells them apart may be missing. Equal values may be shown once. Entries after “also recorded” stand apart in the source; their conditions may differ. Starred links: 1 amine or outer side, 2 acyl side, 3 side chain; linkers in the order of their positions; H or OH if unused. Non-standard residues stand in square brackets, D forms with d. Residues, ends and D or L forms follow the SMILES beside them. ξ: configuration not given here. *: point of attachment. GluureaLys(ε-3-ClBenzyl) = O=C(O)CC[C@H](NC(=O)N[C@@H](CCCCN(Cc1cccc(Cl)c1)*)C(=O)O)C(=O)O; Dolaproine = CO[C@@H]([C@@H]1CCCN1)[C@@H](C)C(=O)O; Dil = CC[C@H](C)[C@H](NC)[C@@H](CC(=O)O)OC; X1 = O=C(CCCc1cn(CCCN[*:1])nn1)[*:2]; PABC = O=C(OCc1ccc(N[*:1])cc1)[*:2]; X2 = C[C@@H](N*)[C@@H](O)c1ccccc1; Cit = NC(=O)NCCC[C@H](N)C(=O)O; Suc = O=C(CCC(=O)[*:2])[*:1]; NMeV = CN[C@H](C(=O)O)C(C)C; ξV = CC(C)C(N)C(=O)O; Ahx = NCCCCCC(=O)O
Key:
[1] = Acute toxicity study, single intravenous administration, rats; type: in vivo; settings: for Necropsy (per animal): day 14; for Necropsy (per animal) / Necropsy / Signs of intoxication / Body weight dynamics in % of initial body weight, Day 5 (individual animals) / Body weight dynamics in % of initial body weight, Day 10 (individual animals) / Body weight dynamics in % of initial body weight, Day 14 (individual animals): listed as test drug; for Body weight dynamics in % of initial body weight, Day 5, M ± SD / Body weight dynamics in % of initial body weight, Day 5 (individual animals) / Body weight dynamics in % of initial body weight, Day 10, M ± SD / Body weight dynamics in % of initial body weight, Day 10 (individual animals) / Body weight dynamics in % of initial body weight, Day 14, M ± SD / Body weight dynamics in % of initial body weight, Day 14 (individual animals): single administration; for Body weight dynamics in % of initial body weight, Day 5, M ± SD: Day 5, group mean; for Body weight dynamics in % of initial body weight, Day 10, M ± SD: Day 10, group mean; for Body weight dynamics in % of initial body weight, Day 14, M ± SD: Day 14, group mean
Text: Acute toxicity study of Conjugate (I) product on mice and rats.
• 1. Conjugate (I). • 2. Solubilizer Pluronic F127—in the amount, five-fold greater than the conjugate amount by weight. • 3. Diluent Haemodes infusion solution. • 4. Dimethyl sulfoxide—in the amount of 5% of the prepared volume.
The experiment took white outbred male mice aged about 2 months with body weight of 19-21,g, and also white outbred mature male rats aged about 2 months with body weight 190-210 g.
Acute toxicity study was performed within the intravenous administration. Before the start of the experiment to determine an acute toxicity, the animals were deprived of food and water (mice were deprived for 2 hours, rats—for 10-12 hours), and then weighed. Then each animal received the intravenous drug injection according to the study design, in a volume not exceeding the acceptable single injection volume: 0.5 mL for mice, 2 mL for rats, and fractionally if necessary. The control group of animals received Pluronic solution in Haemodes in the proportion used fort dose preparation of 78 mg/kg for mice and 38 mg/kg for rats. The duration of observation for laboratory animals was 14 days. During this period, visible signs of intoxication were assessed (see Table 9).

[2] = Body weight of mice in lymphoid leukosis P388 model; type: in vivo
Method: Lymphoid Leukosis P388 (male mice BDF1)—observation was held for 30 days since the first product administration (the product administration was started 24 hours after revaccination) and it was administered 3 times intraperitoneally in a day.
• 1. Group 1—tumor growth control (TGC) • 2. Group 2—placebo (diluent) • 3. Group 3—intraperitoneal Conjugate (I) administration in a dose of 0.5 mg/kg 3 times; • 4. Group 4—intraperitoneal Conjugate (I) administration in a dose of 1.0 mg/kg 3 times:
Experimental animals of control group (TGC) were administered with 0.9% saline, the placebo group was injected with the diluent (DMSO+Haemodes) of similar volume. The antineoplastic activity was determined according to mice lifespan.

[3] = 3 mg/kg, group 11, males, 3 mg/kg
[4] = 4 mg/kg, group 12, males, 4 mg/kg

In the case of CC[C@H](C)[C@@H]([C@@H](CC(=O)N1CCC[C@H]1[C@H](OC)[C@@H](C)C(=O)N[C@H](C)[C@@H](O)c1ccccc1)OC)N(C)C(=O)[C@@H](NC(=O)[C@H](C(C)C)N(C)C(=O)OCc1ccc(NC(=O)[C@H](CCCNC(N)=O)NC(=O)C(NC(=O)CCCc2cn(CCCNC(=O)[C@H](Cc3ccc(O)cc3)NC(=O)[C@H](Cc3ccccc3)NC(=O)CCC(=O)NCCCCCC(=O)N(CCCC[C@H](NC(=O)N[C@@H](CCC(=O)O)C(=O)O)C(=O)O)Cc3cccc(Cl)c3)nn2)C(C)C)cc1)C(C)C (stereo partly drawn) [Conjugate (I)] ({GluureaLys(ε-3-ClBenzyl)-Ahx-Suc}-FY[X1][ξV][Cit][PABC][NMeV]V[Dil][Dolaproine]-X2), the MTD at 14 days ([1]; male, white outbred, rat, in vivo, iv, rats, single i.v., read-out: Maximum tolerated dose) is reported as 4 mg/kg, the “Necropsy (per animal)” value ([1]; rats, 1 mg/kg i.v., 1 mg/kg) is reported as 1- NORMAL and 2- NORMAL and 3- light kidneys and 4- NORMAL and 5- NORMAL and 6- light kidneys, blurred pattern lines and 7- adrenals glands had hemorrhages, kidneys are and 8- light kidneys and 9- large spleen, granular kidneys and 10- kidneys with hemorrhages and the “Necropsy (per animal)” value ([1]; rats, 2 mg/kg i.v., 2 mg/kg) is reported as 1- very light kidneys, unclear pattern, large spleen and 2- light-brown kidneys, dark adrenal glands with and 3- light-brown kidneys with hemorrhages, kidney cut and 4- light-brown kidneys with hemorrhages, kidney cut and 5- kidneys are lighter than a standard and 6- kidneys are almost standard, dark and increased and 7- spotted liver, light kidneys, their structure is visible and 8- liver is lighter than a standard, light kidneys and 9- dark maroon pancreas, increased and bloody adrenal and 10- dark maroon pancreas, kidneys with hemorrhages,. For the same compound, the “Necropsy (per animal)” value ([1]; rats, 3 mg/kg i.v., 3 mg/kg) was 1- light kidneys with hemorrhages and 2- light kidneys with hemorrhages, blurred pattern and 3- light kidneys with hemorrhages and 5- standard kidneys and 6- kidneys with hemorrhages, clear cut pattern and 7- light, spotted, unevenly stained kidneys and 8- light kidneys and 9- light kidneys, increased adrenal glands, kidneys with and 10- kidneys with hemorrhages, dark and increased, the “Necropsy (per animal)” value ([1]; rats, 4 mg/kg i.v., 4 mg/kg) was 1- kidneys with hemorrhages, unclear pattern and 2- spotted kidneys with hemorrhages, clear pattern and 3- increased right adrenal gland, standard kidneys and 4- slightly increased adrenal glands, with hemorrhages, and 5- spotted kidneys with hemorrhages, clear pattern and 6- standard kidney color, blurred cut pattern, unclear and 7- kidney surface hemorrhages, visible pattern and 8- light kidneys with hemorrhage foci, unclear pattern of and 9- slightly increased, hyperemic adrenal glands, kidney and 10- standard kidneys and the Necropsy ([1]; rats, 4.5 mg/kg i.v., dead No. 4 and survivors day 14, 4.5 mg/kg) was “increased and hyperemic kidneys; spotted, dark kidneys;; also recorded: Only rat No. 5 had Sight kidneys; also recorded: Others had standard ones”. The Necropsy ([1]; rats, 5 mg/kg i.v., dead animals and survivors day 14, 5 mg/kg) was 2 - light brown kidneys with greenish shade, blurry cut and All rats had a large spleen, the Necropsy ([1]; rats, 5.1 mg/kg i.v., survivors day 14, 5.1 mg/kg) was “One animal had increased adrenal glands, very light; also recorded: Others had standard ones” and the “Toxic effect (summary)” value ([1]; rats, acute i.v.) was “diarrhea and the renal damage”. The Signs of intoxication ([1]; rats, single i.v. 1 mg/kg, 1 mg/kg) was “No diarrhea was observed on Day 5”, the Signs of intoxication ([1]; rats, single i.v. 3 mg/kg, 3 mg/kg) was “All animals experienced diarrhea on Day” and the Signs of intoxication ([1]; rats, single i.v. 4.5 mg/kg, 4.5 mg/kg) was “Decreased mot. activity - 5-40 minutes; also recorded: Shortness of breath - 1-60 minutes; also recorded: diarrhea, cachexia, porphyria, decreased”. The Signs of intoxication ([1]; rats, single i.v. 5 mg/kg, 5 mg/kg) was “All animals developed diarrhea/cachexia”, the Signs of intoxication ([1]; rats, single i.v. 5.1 mg/kg, 5.1 mg/kg) was “Decreased mot. activity - 5-40 minutes; also recorded: Shortness of breath - 1-60 minutes; also recorded: Days 1-2 - all animals had diarrhea,; also recorded: Death cases occurred in 2 days (2), 4” and the Signs of intoxication ([1]; rats, single i.v. 5.4 mg/kg, 5.4 mg/kg) was “Decreased mot. activity - 5-40 minutes; also recorded: Shortness of breath - 1-60 minutes; also recorded: Days 1-2 - all animals had diarrhea,; also recorded: No standard achieved; also recorded: Two animals had the hindlimb paresis”. The Signs of intoxication ([1]; rats, single i.v. 6 mg/kg, 6 mg/kg) was “on Day 2 - all animals showed diarrhea”, the Signs of intoxication ([1]; rats, single i.v. 8 mg/kg, 8 mg/kg) was “diarrhea, general starvation, adynamia” and the “Body weight dynamics in % of initial body weight, Day 5, M ± SD” value ([1]; 3 mg/kg, group 11, males) was −0.2 ± 7.1%. The “Body weight dynamics in % of initial body weight, Day 5 (individual animals)” value [1, 3] was −1.5% and −11.2% and −5.1% and 10.8% and −9.4% and 5.5% and 1.4% and −2.4% and 2.0% and 7.6%, the “Body weight dynamics in % of initial body weight, Day 10, M ± SD” value ([1]; 3 mg/kg, group 11, males) was 17.2 ± 6.1% and the “Body weight dynamics in % of initial body weight, Day 10 (individual animals)” value [1, 3] was 17.3% and 5.9% and 16.4% and 25.1% and 11.4% and 20.1% and 19.7% and 17.1% and 13.2% and 26.1%. For the same compound, the “Body weight dynamics in % of initial body weight, Day 14, M ± SD” value ([1]; 3 mg/kg, group 11, males) was 22.8 ± 6.0%, the “Body weight dynamics in % of initial body weight, Day 14 (individual animals)” value [1, 3] was 20.8% and 10.1% and 20.0% and 29.1% and 16.8% and 27.1% and 26.4% and 23.8% and 24.9% and 29.4% and the “Body weight dynamics in % of initial body weight, Day 5, M ± SD” value ([1]; 4 mg/kg, group 12, males) was −7.7 ± 7.6%. For the same compound, the “Body weight dynamics in % of initial body weight, Day 5 (individual animals)” value [1, 4] was 6.1% and −15.2% and −5.9% and 0.0% and −3.0% and −4.1% and −13.7% and −17.1% and −9.2% and −14.4%, the “Body weight dynamics in % of initial body weight, Day 10, M ± SD” value ([1]; 4 mg/kg, group 12, males) was 11.0 ± 11.5% and the “Body weight dynamics in % of initial body weight, Day 10 (individual animals)” value [1, 4] was 25.5% and 2.5% and 16.3% (2×) and 22.2% and 19.1% and 5.9% and −10.5% and 14.5% and −1.9%. For the same compound, the “Body weight dynamics in % of initial body weight, Day 14, M ± SD” value ([1]; 4 mg/kg, group 12, males) was 20.1 ± 12.1%, the “Body weight dynamics in % of initial body weight, Day 14 (individual animals)” value [1, 4] was 35.2% and 11.7% and 24.6% and 31.7% and 28.1% (2×) and 18.0% and 1.0% (2×) and 21.7% and the LD50 at 14 days ([1]; white outbred, rat, in vivo, iv, male rats, single i.v., read-out: LD50 (median lethal dose)) was 4.9 mg/kg. The “Body weight of mice” value ([2]; 0.5 mg/kg, day 0, in g (unit assumed)) was 19.9 ± 0.36, the “Body weight of mice” value ([2]; 0.5 mg/kg, day 2, in g (unit assumed)) was 19.2 ± 0.28 and the “Body weight of mice” value ([2]; 0.5 mg/kg, day 4, in g (unit assumed)) was 19.2 ± 0.32. The “Body weight of mice” value ([2]; 1.0 mg/kg, day 0, in g (unit assumed)) was 19.7 ± 0.36, the “Body weight of mice” value ([2]; 1.0 mg/kg, day 2, in g (unit assumed)) was 19.7 ± 0.48 and the “Body weight of mice” value ([2]; 1.0 mg/kg, day 4, in g (unit assumed)) was 19.7 ± 0.42.
